According to paper PMC12255305, “A transfer RNA methyltransferase with an unusual domain composition catalyzes 2′-O-methylation at position 6 in tRNA” (Nucleic Acids Research, 2025):

T1: TrmTS (TK1257 gene product) (Thermococcus kodakarensis KUW1, UniProt Q5JGM1 1-355)
T1 sequence: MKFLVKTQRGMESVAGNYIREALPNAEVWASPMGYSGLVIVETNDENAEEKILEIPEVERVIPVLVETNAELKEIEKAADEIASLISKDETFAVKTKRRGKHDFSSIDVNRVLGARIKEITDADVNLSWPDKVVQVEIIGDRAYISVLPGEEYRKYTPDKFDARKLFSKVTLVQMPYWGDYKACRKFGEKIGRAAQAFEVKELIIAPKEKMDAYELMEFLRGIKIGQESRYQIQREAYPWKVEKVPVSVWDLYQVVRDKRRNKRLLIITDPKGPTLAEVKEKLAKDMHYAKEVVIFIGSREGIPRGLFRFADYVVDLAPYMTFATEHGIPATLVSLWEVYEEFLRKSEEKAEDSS


Experiments:
[1] = target: SPOUT catalytic domain of TrmTS (lacks NFLD and THUMP domain, residues 2-151) (Thermococcus kodakarensis) (UniProt Q5JGM1); test: SEC; Superdex 200 10/300, room temperature; 150 ug truncated TrmTS heated at 50°C for 10 min, run in buffer C (50 mM Tris-HCl pH 8.0, 500 mM KCl, 300 mM ammonium sulfate); size standards 29-150 kDa
purified protein = substrate: C[S+](CC[C@H](N)C(=O)O)C[C@H]1O[C@@H](n2cnc3c(N)ncnc32)[C@H](O)[C@@H]1O; test: purified protein; conditions: 35 μM T. kodakarensis tRNA-Trp transcript, 3 μM enzyme (not fully steady-state), 5 mM MgCl2, 300 mM KCl, pH 7.6, 75°C, mixture of unlabelled and 3H-labelled compound :1
[2] = target: the molecule itself; test: SEC; Superdex 200 10/300, room temperature; 200 ug full-length TrmTS heated at 75°C for 10 min, then run in buffer SEC (50 mM sodium phosphate pH 8.0, 500 mM KCl, 6 mM 2-mercaptoethanol, 5% glycerol); sample buffer also held 0.1% Triton X-100; size standards 29-150 kDa
[3] = target: T1, TrmTS (TK1257 gene product); test: competition (inhibition of methylation of wild-type tRNA-Trp transcript); SAM; competitor against wild-type tRNA-Trp transcript; Inhibition assay conditions (buffer, salt, pH, temperature) not given in the material; conditions: protein: recombinant; tags: none (untagged; native start and stop codons in pET30a); chain copies: 2; tRNA cloverleaf

Molecule | Km (purified protein) | further results
SPOUT catalytic domain of TrmTS (lacks NFLD and THUMP domain, residues 2-151) (from UniProt Q5JGM1 152-355) (domain or fragment) | – | stoichiometry N [1]: 2
TrmTS (TK1257 gene product), full-length wild type (enzyme, Thermococcus kodakarensis, UniProt Q5JGM1 1-355, looked up, TK1257 gene product (TrmTS), tRNA 2'-O-methyltransferase of Thermococcus kodakarensis strain KUW1, 355 amino acids; NFLD, THUMP, linker and SPOUT domains; gene amplified from the ATG to the stop codons; Cloned between NdeI and BamHI of pET30a with its own stop codons; also called full-length TrmTS; wild-type TrmTS; source: E. coli BL21 (DE3) Rosetta 2, purified (75°C heat step, HiTrap Q HP, …)) MKFLVKTQRGMESVAGNYIREALPNAEVWASPMGYSGLVIVETNDENAEEKILEIPEVERVIPVLVETNAELKEIEKAADEIASLISKDETFAVKTKRRGKHDFSSIDVNRVLGARIKEITDADVNLSWPDKVVQVEIIGDRAYISVLPGEEYRKYTPDKFDARKLFSKVTLVQMPYWGDYKACRKFGEKIGRAAQAFEVKELIIAPKEKMDAYELMEFLRGIKIGQESRYQIQREAYPWKVEKVPVSVWDLYQVVRDKRRNKRLLIITDPKGPTLAEVKEKLAKDMHYAKEVVIFIGSREGIPRGLFRFADYVVDLAPYMTFATEHGIPATLVSLWEVYEEFLRKSEEKAEDSS | 23 µM | stoichiometry N [2]: 4
TrmTS (TK1257 gene product) (Thermococcus kodakarensis KOD1; E301A) (protein) MKFLVKTQRGMESVAGNYIREALPNAEVWASPMGYSGLVIVETNDENAEEKILEIPEVERVIPVLVETNAELKEIEKAADEIASLISKDETFAVKTKRRGKHDFSSIDVNRVLGARIKEITDADVNLSWPDKVVQVEIIGDRAYISVLPGEEYRKYTPDKFDARKLFSKVTLVQMPYWGDYKACRKFGEKIGRAAQAFEVKELIIAPKEKMDAYELMEFLRGIKIGQESRYQIQREAYPWKVEKVPVSVWDLYQVVRDKRRNKRLLIITDPKGPTLAEVKEKLAKDMHYAKEVVIFIGSRAGIPRGLFRFADYVVDLAPYMTFATEHGIPATLVSLWEVYEEFLRKSEEKAEDSS | 21 ± 5.1 µM | –
TrmTS (TK1257 gene product) (Thermococcus kodakarensis KOD1; K155A) (protein) MKFLVKTQRGMESVAGNYIREALPNAEVWASPMGYSGLVIVETNDENAEEKILEIPEVERVIPVLVETNAELKEIEKAADEIASLISKDETFAVKTKRRGKHDFSSIDVNRVLGARIKEITDADVNLSWPDKVVQVEIIGDRAYISVLPGEEYRAYTPDKFDARKLFSKVTLVQMPYWGDYKACRKFGEKIGRAAQAFEVKELIIAPKEKMDAYELMEFLRGIKIGQESRYQIQREAYPWKVEKVPVSVWDLYQVVRDKRRNKRLLIITDPKGPTLAEVKEKLAKDMHYAKEVVIFIGSREGIPRGLFRFADYVVDLAPYMTFATEHGIPATLVSLWEVYEEFLRKSEEKAEDSS | 44 ± 7.6 µM | –
tRNA-Trp C6G-G67C transcript (G6-C67) (structured_RNA) RNA: GGGGGGGUGGUGUAGCCUGGUCCAUCAUCGCGGGCUCCAGACCCGCGGACCGGGGUUCAAAUCCCCGCCCCCCCACCA | – | IC50 [3]: ~30 µM
